System: MS2 coat protein
Test: apparent KD of MS2 coat protein; designed switch direction (-1 OFF switch, 1 ON switch): 1; higher = weaker reporter binding
Outline: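 The buffer was Tris-HCl pH 7.5 with KCl, MgCl2, BSA, DTT, tRNA and Tween-20. In it, SNAP-549-labelled MS2 coat protein was titrated in doubling steps from 0.7 or 1.5 nM to 3 µM over chip-bound RNA switches transcribed by stalled E. coli RNA polymerase on Illumina chips. Apparent KD is the per-design median over clusters of curve fits to normalised fluorescence.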

[1] = input ligand: microRNA oligo, concentration not stated
[2] = Eterna round: R95, input ligand: FMN 200 uM
[3] = Eterna round: R95, input ligand: microRNA oligo, concentration not stated
[4] = Eterna round: R95, input ligand: none

Sequence: GAGCCAGUCCGAGGAUAUUACAUGAGGAUCACCCAUGUAGGCUCAGAAAAGAAAAGAGAGCCUUGGGAGAAGGCGGACUGGCUC [Xeonanisa<<9] (Eterna round: R96, puzzle: Same State NG 2)
- apparent KD of MS2 coat protein (input ligand: FMN 200 uM): 0.00819 µM
- apparent KD of MS2 coat protein [1]: 0.0201 µM
- apparent KD of MS2 coat protein (input ligand: none): 0.0391 µM

Sequence: GAGGGACAGACCAACAUGAGGAUCACCCAUGUCCUCGCAGGUCAGGAUAUCCGGCCAACAGGCAAGGAGAAGGGACGGUGAACC (Eterna round: R96, puzzle: Same State NG 3)
- apparent KD of MS2 coat protein (input ligand: FMN 200 uM): 0.417 µM
- apparent KD of MS2 coat protein [1]: 0.344 µM
- apparent KD of MS2 coat protein (input ligand: none): 0.479 µM

Sequence: GAGGGACAUGAGGAUCACCCAUGUGGAGGGAGUAAAGGAUAUUAGUGUGGGAAAGUAGGGUAAGAAGGUUGAUUGG [JR_SS1_Sub084] (puzzle: Same State 1)
- apparent KD of MS2 coat protein [2]: 0.103 µM
- apparent KD of MS2 coat protein [3]: 0.0749 µM
- apparent KD of MS2 coat protein [4]: 0.209 µM

Sequence: GAGGGCGAAAGCAACAUGAGGAUCACCCAUGUUGUCGAAAGGCAGGAUAUCCGGCGAAAGCAGAAGGAGAAGGGUCGAAAAGAA [AK SSNG3-V2-40] (Eterna round: R96, puzzle: Same State NG 3)
- apparent KD of MS2 coat protein (input ligand: FMN 200 uM): 0.0145 µM
- apparent KD of MS2 coat protein [1]: 0.0197 µM
- apparent KD of MS2 coat protein (input ligand: none): 0.0249 µM

Sequence: GAGGGCGAAAGCGACAUGAGGAUCACCCAUGUCCUCGGAGGGCAGGAUAUCCGGCAAAAGCCGAAGGAGAAGGGUCGAAAAGAA [AK SSNG3-V2-38.1] (Eterna round: R96, puzzle: Same State NG 3)
- apparent KD of MS2 coat protein (input ligand: FMN 200 uM): 0.0664 µM
- apparent KD of MS2 coat protein [1]: 0.026 µM
- apparent KD of MS2 coat protein (input ligand: none): 0.0411 µM

Sequence: GAGUAGGAGUUACAGGAUAUAUGGAGGAGGACAUGAGGAUCACCCAUGUGAGAGAUGAGAGGAGGAUAGAAGGGUAAGGGAGUAA [JR_SS2_Sub028] (puzzle: Same State 2)
- apparent KD of MS2 coat protein [2]: 0.024 µM
- apparent KD of MS2 coat protein [3]: 0.0206 µM
- apparent KD of MS2 coat protein [4]: 0.0462 µM

Sequence: GAGUAGUUGAAAGGAUAUGGAUUAUUGUAGGAUCCAGAAGGUUUUAACAUGAGGAUCACCCAUGUAGGACUAUAUAUGUGAAUA [Parity 96 - Jieux - Same State NG 1] (Eterna round: R96, puzzle: Same State NG 1)
- apparent KD of MS2 coat protein (input ligand: FMN 200 uM): 0.0153 µM
- apparent KD of MS2 coat protein [1]: 0.0102 µM
- apparent KD of MS2 coat protein (input ligand: none): 0.0154 µM

Sequence: GAGUGGCAGUUAGGAUAUACAGUGAUAAUGAUAGUAGAAGGAACAGACAUGAGGAUCACCCAUGUAGGACUAAUCCAGAGAGAG [Parity 33 - Jieux - Same State NG 1] (Eterna round: R96, puzzle: Same State NG 1)
- apparent KD of MS2 coat protein (input ligand: FMN 200 uM): 0.0308 µM
- apparent KD of MS2 coat protein [1]: 0.0298 µM
- apparent KD of MS2 coat protein (input ligand: none): 0.0349 µM

Sequence: GAGUGGCAGUUAGGAUAUACAGUGAUAAUGAUAGUAGAAGGAACUGACAUGAGGAUCACCCAUGUAGGACUAAUCCAGAGAGAG [Parity 32 - Jieux - Same State NG 1] (Eterna round: R96, puzzle: Same State NG 1)
- apparent KD of MS2 coat protein (input ligand: FMN 200 uM): 0.0923 µM
- apparent KD of MS2 coat protein [1]: 0.0212 µM
- apparent KD of MS2 coat protein (input ligand: none): 0.0315 µM

Sequence: GAGUGGUGGAGAGGAUAUACAUUGAUAUUCACUGUAGAAGGUUCUAACAUGAGGAUCACCCAUGUAGGACUAUUCCUGAGAGUU [Parity 54 - Jieux - Same State NG 1] (Eterna round: R96, puzzle: Same State NG 1)
- apparent KD of MS2 coat protein (input ligand: FMN 200 uM): 0.011 µM
- apparent KD of MS2 coat protein [1]: 0.00899 µM
- apparent KD of MS2 coat protein (input ligand: none): 0.0147 µM

Sequence: GAGUUACUAUCUCAGGAUAUCAUGUCAAAGACAUGAGGAUCACCCAUGUACCAGGAAACUGGUUAUGAGAAGGGAGAUAGUAACA [Mat - Same State 2 - Mod - D51] (puzzle: Same State 2)
- apparent KD of MS2 coat protein [2]: 0.113 µM
- apparent KD of MS2 coat protein [3]: 0.0096 µM
- apparent KD of MS2 coat protein [4]: 0.0144 µM

Sequence: GAUAGACAUGAGGAUCACCCAUGUGACAAAACCACAGGAUAUCAUGCAGGCGUACCUGCAUGAGAAGGGUGAGACU [Ceriinaqu] (puzzle: Same State 1)
- apparent KD of MS2 coat protein [2]: 0.0297 µM
- apparent KD of MS2 coat protein [3]: 0.0353 µM
- apparent KD of MS2 coat protein [4]: 0.022 µM

Sequence: GAUUAACAUGAGGAUCACCCAUGUCGUAUUAUGGGAGGAUAUACGUGGACCGUAGUCCGCGUAGAAGGCCUAAUUG [JL-ss1-3.21 janelle mod] (puzzle: Same State 1)
- apparent KD of MS2 coat protein [3]: 0.0764 µM

Sequence: GCAACGUGAUUAGGAUAUGCGAAACCCAUGGAAACUACACAUGAGGAUCACCCAUGUCCAUAGCCGCAGAAGGGAUCCGGAGCA [Eternabot solution 6] (Eterna round: R96, puzzle: Same State NG 2)
- apparent KD of MS2 coat protein (input ligand: FMN 200 uM): 0.0321 µM
- apparent KD of MS2 coat protein [1]: 0.0903 µM
- apparent KD of MS2 coat protein (input ligand: none): 0.147 µM

Sequence: GCAGGACGAUAAUAUAACUUCACAUGAGGAUCACCCAUGUCUCAGGAUAUGGAUCCUAAUUGGAUCCAGAAGGGAGCGUCCUGC [Fiskers NG3ss - 34] (Eterna round: R96, puzzle: Same State NG 3)
- apparent KD of MS2 coat protein (input ligand: FMN 200 uM): 0.0145 µM
- apparent KD of MS2 coat protein [1]: 0.0259 µM
- apparent KD of MS2 coat protein (input ligand: none): 0.0351 µM

Sequence: GCAUCACAUGAGGAUCACCCAUGUCUUCGGAGUCGAGGAUAUGGUCACUGUAAACAGUGGCCAGAAGGCGAGAUGC [SS1 - Son of Teenbexe] (puzzle: Same State 1)
- apparent KD of MS2 coat protein [3]: 0.0414 µM

Sequence: GCCAACACAUGAGGAUAUGGCACCUUAUUGGUGCCAGAAGGCAUGUCUAUUGACAUGAGGAUCACCCAUGUAUUAUAGUUGGCA [Fiskers NG1ss - 14] (Eterna round: R96, puzzle: Same State NG 1)
- apparent KD of MS2 coat protein (input ligand: FMN 200 uM): 0.0752 µM
- apparent KD of MS2 coat protein [1]: 0.214 µM
- apparent KD of MS2 coat protein (input ligand: none): 1.21 µM

Sequence: GCCAUCGAAUGAGGAUAUGGCACCGUUUCGGUGCCAGAAGGCAUGUCAAUUGACAUGAGGAUCACCCAUGUAUUAUCGAUGGCA [JL Fiskers NG1ss - 33 mod 5] (Eterna round: R96, puzzle: Same State NG 1)
- apparent KD of MS2 coat protein (input ligand: FMN 200 uM): 0.119 µM
- apparent KD of MS2 coat protein [1]: 0.712 µM
- apparent KD of MS2 coat protein (input ligand: none): 1.64 µM

Sequence: GCCGCAAGGGCAGGAUAUGGGUCCAGAGUGCAAAUACACUCUGGUACAUGAGGAUCACCCAUGUCCCAGAAGGGCCCAAGCGGC [Teerledion] (Eterna round: R96, puzzle: Same State NG 2)
- apparent KD of MS2 coat protein (input ligand: FMN 200 uM): 0.0139 µM
- apparent KD of MS2 coat protein [1]: 0.071 µM
- apparent KD of MS2 coat protein (input ligand: none): 0.127 µM

Sequence: GCGAAAGCGGUAGGAUAUCUAGGAUAUGGGAAGACCUAAGGUUGGAAGUCACUUCACCCAGAAGGAGAGAAGGACACCGAAAGG [pwkr ssNG2 2FMN + F9.2] (Eterna round: R96, puzzle: Same State NG 2)
- apparent KD of MS2 coat protein (input ligand: FMN 200 uM): 0.0366 µM
- apparent KD of MS2 coat protein [1]: 0.113 µM
- apparent KD of MS2 coat protein (input ligand: none): 0.134 µM

— the supplement of paper PMC9170038
